Measurements as given in PMC6780499, “Characterization, Recombinant Production and Structure-Function Analysis of NvCI, A Picomolar Metallocarboxypeptidase Inhibitor from the Marine Snail Nerita versicolor” (Marine Drugs, 2019).
Where two headings read alike, the source gives them in different places. No end group written: not given here.

Legend:
[1] = test system: bCPA and hCPA1; experiment: Competitive (double) titration with the tight-binding inhibitor TCI; type: biochemical; settings: competing assays with the similar tight-binding inhibitor TCI
[2] = target: T1, bCPA1 (Bos taurus, UniProt P00730); experiment: Ki determination, tight-binding inhibition of metallocarboxypeptidase; type: biochemical, bovine
T1 sequence (P00730 111-419): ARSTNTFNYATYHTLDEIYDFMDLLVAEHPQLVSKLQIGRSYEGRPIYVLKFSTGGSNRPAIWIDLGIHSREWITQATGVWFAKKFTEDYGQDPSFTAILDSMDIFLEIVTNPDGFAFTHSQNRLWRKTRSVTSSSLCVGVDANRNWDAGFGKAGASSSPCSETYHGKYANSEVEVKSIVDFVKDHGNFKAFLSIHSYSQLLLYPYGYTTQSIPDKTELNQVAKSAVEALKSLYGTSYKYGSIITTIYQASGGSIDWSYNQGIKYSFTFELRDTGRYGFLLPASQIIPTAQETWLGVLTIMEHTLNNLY
Protocol: (§1) Inhibitory activities against CPA- and CPB-type forms (bovine and human variants of CPA1, CPA2, CPA4, CPB1, and TAFI) were assayed for all extracts, subject to the experimental conditions that enzyme (E), substrate (S) and inhibitor (I) concentrations as well as the [I]/[E] ratio and preincubation time followed the requirements for tight-binding inhibitor assays. Similar approaches were followed to measure the activities of proteases of different catalytic types, like pepsin, papain, trypsin and subtilisin [45, 46, 47, 48]. All assays were performed in triplicate at 25 °C in a multiplexed manner. For 96-well assays an iEMS spectrophotometer reader/dispenser FM (Labsystems, Finland) was used with a final reaction volume of 250 μL. For cuvette assays, a Cary 400 Bio spectrophotometer (Varian Inc., Palo Alto, CA, USA) spectrophotometer was used with a final reaction volume of 1 ml. The reactions were followed at 5 s intervals for 5 min and recorded as initial velocities. In the protease inhibition assays, mixtures of activity buffer, biological sample and enzyme were preincubated at 25 °C for 10min, before substrate addition. The assay conditions were as follows: for CPA-like enzymes, 7.0nM CPA, 0.1mM AAFP substrate in 20mM Tris-HCl pH 7.5, 500mMNaCl, 1% v/v dimethyl sulfoxide (DMSO), 0.05% w/v BRIJ-35 was used. For CPB-like enzymes, CPB 3.0nM CPB, 0.1mM AAFA substrate and activity buffer of 20 mM Tris-HCl pH [50].
The Ki values of natural and recombinant NvCI against bCPA1, hCPA1, hCPA2, rat CPA3, hCPA4, hCPB1, bTAFI, hTAFI, hCPD and hCPZ were determined by measuring the enzymatic residual activity (Vi/V0 = a) at different inhibitor concentrations and using a fixed enzyme and substrate concentrations as described above, where vi and v0 are the fraction of enzymatic activity in the presence and absence of inhibitor, respectively, in terms of initial velocities. The determination of Ki values was carried out on equilibrium conditions ([E0]/Ki ≤ 10), using a previously determined preincubation time of 15 min, required to establish enzyme-inhibitor equilibrium. Working temperature was 37 °C. The best estimates of Ki values were obtained by fitting the experimental data to the equation for tight-binding inhibitors by non-linear regression using the GraphPad Prisma 5 software (GraphPad Software, Inc., San Diego, CA, USA) at p < 0.05. The real Ki values against each of these A/B-type MCPs were calculated according to the equation described by Morrison and Copeland [19, 20].

[3] = test system: serine, cysteine and aspartic proteases; experiment: Inhibition of proteases of other catalytic types; type: biochemical; settings: even at tenfold excess; pepsin, papain, trypsin and subtilisin assays, 25 °C, triplicate
Protocol: as §1, with “For CPB-like enzymes, CPB 3.0nM CPB, 0.1mM AAFA substrate and activity buffer of 20 mM Tris-HCl pH [50].” left out

[4] = Folding state and stability by CD at different pH and temperature; type: physicochemical; settings: pH 2 to 10, 25 °C to 90 °C, 0.05–0.06 mg/ml
Protocol: The folding state and stability of NvCI was investigated on the natural and recombinant forms by CD. The proteins, either in 0.1% TFA (v/v) or 20mM sodium phosphate (pH 2.0, 6.5 or 8.0) were analyzed at 0.05–0.06 mg/ml, from 25 to 90 °C in a Jasco J-710 spectropolarimeter (Pfugnstadt, Germany) in the 190–320nm range. Additional analyses were made under folding conditions (20mM sodium phosphate, pH 8.0) in the absence and presence of reducing reagent (1 or 20 mM DTT), a redox-pair (1mM Cys + 0.5mM cystine), and either absence or presence of denaturant (8 M urea). Complementary ^1H-NMR experiments were performed in a 500MHz NMR (Bruker Advance) on rNvCI in 20 mM sodium phosphate (pH 2.0 and 6.5), in 90% ^1H2O + 10% D2O, at 298 K. DQF-COSY, NOESY, TOCSY and HSQC spectra were obtained in a TCI cryoprobe of 5mm and used for provisional backbone assignment.

NvCI: 53-residue, three-disulphide proteinaceous metallocarboxypeptidase inhibitor from the marine snail Nerita versicolor; major isoform; UniProt P86912 (FHVPDDRPCINPGRCPLVPDATCTFVCKAADNDFGYECQHVWTFEGQRVGCYA; disulfide (positions not given here); also: three disulphides, pairing not given here; UniProt P86912 1-53, looked up)
inhibitory capability / maximum potential activity by competitive titration [1]: 50.4% | Ki ([2]; natural isoforms, apparent Ki, without correction by competing assays, read-out: derived Ki towards bCPA (apparent Ki values)): 0.027 ± 0.002 nM | Ki ([2]; tight-binding equation fit, equilibrium conditions, substrate AAFP 0.1mM, 20mM Tris-HCl pH 7.5, 500mM NaCl, preincubation 15 min, 37 °C, means (n = 3) ± SD, read-out: Ki): 0.0096 ± 0.0014 nM | inhibition of serine, cysteine and aspartic proteases [3]: unable to inhibit | stability by CD spectra [4]: great stability and capacity to recover its spectral properties when returned to room conditions
